PMC3585325

Molecular target: recombinant human IGF2R extracellular domains 1–15, biotinylated CD4 (domains 3 and 4) fusion protein (human) (UniProt P11717)
Experiment: SPR; BIAcore T200; 1800 RU biotinylated IGF2R fusion protein immobilised on a streptavidin-loaded CM5 chip; IGF2 256 to 0.125 nM injected for 200 s at 40 µL/min, 25°C, HBS-EP buffer; kinetic fit to a 1:1 binding model and steady state analysis

Row | Kd | Substance
1 | 1 to 4 nM | recombinant human IGF2 (ligand)
2 | 3 to 6 nM | recombinant mouse IGF2 (ligand)
